# Test system: MS2 coat protein
# Experiment: apparent KD of MS2 coat protein; designed switch direction (-1 OFF switch, 1 ON switch): -1; higher = weaker reporter binding
# Outline: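 Each step of the titration lasted 0.8–1.5 h at the lowest concentration and 10–20 min at the highest. The protein, SNAP-549-labelled MS2 coat protein, went from 0.7 or 1.5 nM doubling to 3 µM over RNA switches transcribed on Illumina chips by stalled E. coli RNA polymerase. Normalised cluster fluorescence was curve-fitted, and the per-design median over clusters is given as apparent KD.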
# [1] = Eterna round: R95, input ligand: microRNA oligo, concentration not stated
# [2] = input ligand: microRNA oligo, concentration not stated
# [3] = Eterna round: R95, input ligand: FMN 200 uM
# [4] = Eterna round: R95, input ligand: none
Sequence,apparent KD of MS2 coat protein [1] [nM],apparent KD of MS2 coat protein (input ligand: FMN 200 uM) [nM],apparent KD of MS2 coat protein (input ligand: none) [nM],apparent KD of MS2 coat protein [2] [nM],apparent KD of MS2 coat protein [3] [nM],apparent KD of MS2 coat protein [4] [nM]
UUUAUGUCAGGAUAUGAGGAGUAGAACAAUAGUACUACUCCUCAGAAGGGACAUGAGGAUCACCCAUGUUCCUC [Fiskers Ex 4 Super stable 44 mod 25] (puzzle: Exclusion 4),18.5,,,,,
"GAACCUUGAGGAUAUACAUAACAACAAAGCCUCACGUGCCAACAUGAGGAUCACCCAUGUAGAAGGCAAGCCAA [Mod R3 Insanara 9 - Jieux - Exclusion 2] (Eterna round: R97, puzzle: Exclusion 2)",,19,16.2,,,
"UUUAUCCGAGGAUAUACAGAAUGAAUGUGAAAUGAAUGAUGACAUGAGGAUCACCCAUGUAGAAGGCGGAUAUA [Default title] (Eterna round: R97, puzzle: Exclusion 2)",,404,57.8,,,
"GCAGCAUAGUCGGAAACGACAGAACAUGAGGAUCACCCAUGUUAGGAUAUGGUCUGGAUUACAGGCCAGAAGGGACAAAGCUGC [Eli exng3 - 009] (Eterna round: R96, puzzle: Exclusion NG 3)",,34.8,39.9,29.7,,
"UUAUGUGCGAGAGGAUAUCGUGUACAAAGUACACGAGAAGGCUUCACAUGAGGAUCACCCAUGUACCGAGGUGAAACACCUUGA [Omei Exc(NG)1 Bv7] (Eterna round: R96, puzzle: Exclusion NG 1)",,660,887,476,,
"AGGAUGCUAGGAUAUACAGGUUGAAAACUGAUCGGCGCCAGACAUGAGGAUCACCCAUGUAGAAGGAGCGAGGC [EX2 B.26] (Eterna round: R97, puzzle: Exclusion 2)",,36.1,38.7,,,
"AUUAUGUUAGGAUAUGCUUAUGGUGGAUAGUCCAGUAUGAUGUAGAAGGGACAUGAGGAUCACCCAUGUGCUGA [EX4 #34] (Eterna round: R97, puzzle: Exclusion 4)",,46.9,41.9,,,
"AAUAGCAAGUAAGAUCCUAACAUGAGGAUCACCCAUGUGCUCGUCUUGUAAAGUACUAUCACGAAAGUGAUAGUACA [Sensor 3, v1 - 50] (puzzle: Sensor v3, turn-off variant 1)",69.4,,,,108,146
UGGGUUACAGGAUAUACAUGAGGAUCACCCAUGUCAUGUUUCGUGGCGGAUAGCUCGAGUAGAAGGGUGCAUCC [Diorus] (puzzle: Exclusion 3),36.6,,,,,
"GAAAACGUAGGAUAUUAAUACUUAGACAUGAGGAUCACCCAUGUUUGGUGGGUCGGAGAAUGAGAAGGGCGAUGAA [EX5 #13] (Eterna round: R97, puzzle: Exclusion 5)",,107,153,,,
CAUACUAAAGUCAGGAUAUGCGGUCGAAUACGGGCGUAGAAGGGACAUGAGGAUCACCCAUGUAGAUAGUAAAG [EX-4 Malc #19] (puzzle: Brourd's mod of Exclusion 4),13.6,,,,15.3,15.7
"GCCGGAUAAGUGAGGAUAUGCCUAUGGAUACGUAGGCAGAAGGCACAUGAGGAUCACCCAUGUACCUCUCCGGC [JL-BMX4-4.25 Eli mod] (Eterna round: R97, puzzle: Brourd's mod of Exclusion 4)",,116,17.5,,,
"UUGAUGUGAGGAUAUAUUUAGUGUUUUCUUUAUGUUUUAUAACUUGAGGAUCACCCAAGUAGAAGGCGCUACGU [JR_Ex2_Sub066] (Eterna round: R97, puzzle: Exclusion 2)",,19,13.9,,,
"GGAGUGUAAGGAUAUAAGACAAGGGCUAUCGGAGCCCAAAUUUAGAAGGUACAUGAGGAUCACCCAUGUGAUGA [Eternabot (L1) Solution 5] (Eterna round: R97, puzzle: Exclusion 4)",,124,27.2,,,
"GAUUAUGCGAGCUUUAGGGACAUGAGGAUCACCCAUGUUCGUCUUAUUGGUCUGGAUACGCUAACAUACCUAAAUCU [JMF 38] (puzzle: Sensor v3, turn-off variant 1)",30.6,,,,21.5,24.8
"ACACACAGAGGAUAUCUUCCGCAUGACAUGAGGAUCACCCAUGUGUGCAUGCCCAAAAGUAGAGAAGGCUGUGUGU [eternacac ex5r4 #3] (Eterna round: R97, puzzle: Exclusion 5)",,27.1,35.6,,,
GGAAAACAUGAGGAUCACCCAUGUAAGGAUAUGCAAAAGGAUAUAGAAGGAAAAUAAAGCAGAAGGUACAAAGG [salish99-ex1_r3_098] (puzzle: Exclusion 1),23.7,,,,126,127

Sequence,apparent KD of MS2 coat protein [1] [nM],apparent KD of MS2 coat protein (input ligand: FMN 200 uM) [nM],apparent KD of MS2 coat protein (input ligand: none) [nM],apparent KD of MS2 coat protein [2] [nM],apparent KD of MS2 coat protein [3] [nM],apparent KD of MS2 coat protein [4] [nM]
"AUCCCGCGAGGAUAUACAUGAGGAUCACCCAUGUAGGUUCUGGAUGGGCGAAAUUUGUGUAGAAGGCGCACCAA [Tibeaqu] (Eterna round: R96, puzzle: Exclusion 3)",,38.4,52,42.6,,
"CCGGCUUAGGAGGAUAUAGGAGUCGAAAGACACCUAGAAGGCCUAACAUGAGGAUCACCCAUGUGUCCUACCGG [Mod of Eli 6 - Jieux - Exclusion 6] (Eterna round: R97, puzzle: Exclusion 6)",,78.4,24,,,
"AGUGUGUGGCAGGAUAUUCUAAUCUUUAGGAGGGAAGAAGGGUCUACAUGAGGAUCACCCAUGUAAGCGGUUGA [Ex6 #40] (Eterna round: R97, puzzle: Exclusion 6)",,221,75.3,,,
"UAGGCUUUAGGAUAUGCGUGUUGUAGUCGGCGAUGUGGUUCACAUGAGGAUCACCCAUGUAGAAGGAAAGUUUA [-17.2, -17 kcal, 26% A] (Eterna round: R97, puzzle: Exclusion 2)",,244,104,,,
"GACAGGGCAGGAUAUCGAGAUCCUCACAUGAGGAUCACCCAUGUUCAGUCGAAAGACUGACGAGAAGGGCCGUGUC [Omei Ex5 E3] (Eterna round: R97, puzzle: Exclusion 5)",,36.8,33.2,,,
"ACCGUGUAAGGAUAUCGAGGCCGAGGAAGUCGCAUGGCCUGUGAGAAGGUACAUGAGGAUCACCCAUGUCCCAU [Eternabot (L2) Solution 6] (Eterna round: R97, puzzle: Exclusion 4)",,28.7,27.6,,,
"AUUUUGUCAGGAUAUUAGUAGUAAAUGAAUAAAAUUAUUACUGAGAAGGGACAUGAGGAUCACCCAUGUGUCUU [Mat - Exclusion 4 - Eli Mod - D9] (Eterna round: R97, puzzle: Exclusion 4)",,24.1,23,,,
"UCAAGCUUUAGGCGUGUGAACAUGAGGAUCACCCAUGUAUUUUUGGUUAGGAGUUCUGUAAGGGAUGCUCGUCUUAU [JR_SWV3TOV1_Sub092] (puzzle: Sensor v3, turn-off variant 1)",54.8,,,,57.5,75.8
"AUCCGACAUGAGGAUCACCCAUGUCAGGAUAUGGACUGACAUCGAAAGGAUGGAAGAACCAGAAGGGACUGGGC [Betiqu] (Eterna round: R96, puzzle: Exclusion 1)",,71.7,20.1,17.1,,
AUGGUACAUGAGGAUCACCCAUGUUAGGAUAUCGCGUGUUCUAAAACUAAGAGAUACACGAGAAGGGACGACAU (puzzle: Exclusion 1),81.2,,,,,
"UUGUACAUAGGAUAUAGUUGUUUGUACAUGAGGAUCACCCAUGUUAUGUAUGUUUUGCUUCUAGAAGGAUGUUGUU [JR_E5_Sub004] (Eterna round: R96, puzzle: Exclusion 5)",,28.5,34.5,25.8,,
"CAGUACUGAGGAUAUACAUGAGGAUCACCCAUGUGUUCCAGCUAGGAAACUAGCAAUAGUAGAAGGCAGUACUG [salish99_ex3_r3_090x] (Eterna round: R96, puzzle: Exclusion 3)",,417,23.2,19.1,,
"UUCCUCGUUGUGAGGAUAUCGUCCGUGUUUUGUUACGAGAAGGCACAUGAGGAUCACCCAUGUUACUUGAUGUU [JR_BMOE4_Sub073] (Eterna round: R96, puzzle: Brourd's mod of Exclusion 4)",,150,23.3,19,,
"GUGCCGCGAGGAUAUACAGACGGGUCCAAAACGUGUCUCGGACUUGAGGAUCACCCAAGUAGAAGGCGUAUCAG [salish99_ex2_r4_619] (Eterna round: R97, puzzle: Exclusion 2)",,27.8,21.4,,,
"GAACCAUGAGGAUAUUCUGAUCCUAACAUGAGGAUCACCCAUGUGAGUACAAAAGUACUCGAAGAAGGCAUGGUUC [Omei Ex5 B2] (Eterna round: R97, puzzle: Exclusion 5)",,819,428,,,
"AUUCAACAUGAGGAUCACCCAUGUGAGGAUAUGCGAGUAUAGACUUCGGUCUGAUAGAGCAGAAGGCGCAGAUA [EX1 #6] (Eterna round: R97, puzzle: Exclusion 1)",,48.7,32.8,,,
"UAUUUAGCAAGUAGAUCCUACAUGAGGAUCACCCAUGUGCUCUGAAAUAACGCAGAAUUACUGCGAGCUCGUCUUAU [Winner reversed engineered 28] (Eterna round: R97, puzzle: Sensor, turn-off variant 1)",,1080,1560,,,

# Source: the supplement of paper PMC9170038
